Tested on: peptide library, one residue held at a place counted from the Y acceptor
Assay: relative phosphorylation of the sub-library (ratio to the mean residue at this position); higher = residue favoured
In short: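 Purified recombinant kinases were incubated for 90 min in 384-well plates with biotinylated Tyr-centred peptide library mixtures, each fixing one residue at one position from −5 to +5, plus 50 μM ATP with γ-32P-ATP. Peptides were captured on streptavidin membranes, rinsed and quantified by phosphorimaging and ImageQuant. Intensities were normalized per position by the sum of the 18 (or 16, Ser/Thr-free library) randomized residues and multiplied by that number. Values give phosphorylation relative to the mean randomized residue.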

Sequence of PDGFRA, construct: aa550-end, human (P16234 550-1089, looked up): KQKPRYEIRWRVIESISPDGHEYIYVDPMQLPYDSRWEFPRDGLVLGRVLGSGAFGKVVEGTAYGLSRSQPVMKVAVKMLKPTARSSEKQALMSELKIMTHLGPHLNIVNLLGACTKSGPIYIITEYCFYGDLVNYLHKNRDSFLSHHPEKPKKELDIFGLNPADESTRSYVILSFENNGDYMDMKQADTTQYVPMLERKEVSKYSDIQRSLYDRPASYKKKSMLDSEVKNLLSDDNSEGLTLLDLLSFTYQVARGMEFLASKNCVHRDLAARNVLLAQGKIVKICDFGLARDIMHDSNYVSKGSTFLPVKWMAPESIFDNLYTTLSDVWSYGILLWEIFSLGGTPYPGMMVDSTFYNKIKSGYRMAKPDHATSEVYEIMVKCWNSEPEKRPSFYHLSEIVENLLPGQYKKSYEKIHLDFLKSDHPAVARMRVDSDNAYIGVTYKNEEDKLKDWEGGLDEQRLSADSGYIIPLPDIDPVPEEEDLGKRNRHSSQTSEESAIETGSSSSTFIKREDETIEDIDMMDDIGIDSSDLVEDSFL
Sequence of NTRK3, construct: aa510-end, human (Q16288 510-839, looked up): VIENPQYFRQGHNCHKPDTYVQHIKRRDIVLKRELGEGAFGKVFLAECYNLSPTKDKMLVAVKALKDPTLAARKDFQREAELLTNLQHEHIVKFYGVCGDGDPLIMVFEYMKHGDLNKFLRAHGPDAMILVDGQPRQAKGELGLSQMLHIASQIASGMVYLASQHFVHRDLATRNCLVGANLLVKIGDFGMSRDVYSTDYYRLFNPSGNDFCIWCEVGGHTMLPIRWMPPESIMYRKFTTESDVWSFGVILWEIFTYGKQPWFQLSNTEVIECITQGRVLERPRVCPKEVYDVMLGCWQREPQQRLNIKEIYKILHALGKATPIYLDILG
Sequence of PDGFRB, construct: aa557-end, human (P09619 557-1106, looked up): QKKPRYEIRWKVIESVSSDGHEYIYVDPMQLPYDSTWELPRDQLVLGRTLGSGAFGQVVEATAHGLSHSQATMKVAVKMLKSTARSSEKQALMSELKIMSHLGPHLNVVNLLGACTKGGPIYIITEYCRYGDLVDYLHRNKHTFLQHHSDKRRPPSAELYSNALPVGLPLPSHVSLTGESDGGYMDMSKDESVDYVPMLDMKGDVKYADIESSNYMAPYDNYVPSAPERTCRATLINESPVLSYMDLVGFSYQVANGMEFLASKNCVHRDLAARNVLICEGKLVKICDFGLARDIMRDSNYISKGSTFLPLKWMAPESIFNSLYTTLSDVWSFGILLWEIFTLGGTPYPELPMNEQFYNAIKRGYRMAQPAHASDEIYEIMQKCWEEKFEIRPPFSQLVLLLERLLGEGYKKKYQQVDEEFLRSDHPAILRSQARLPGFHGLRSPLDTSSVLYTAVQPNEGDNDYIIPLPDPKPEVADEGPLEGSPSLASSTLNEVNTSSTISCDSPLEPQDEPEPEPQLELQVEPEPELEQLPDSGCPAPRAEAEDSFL

NTRK3, construct: aa510-end, human (from UniProt Q16288)
relative phosphorylation
Details	at +1	at +2	at +3	at +4	at +5	at -1	at -2	at -3	at -4	at -5
A fixed	1.69	0.892	0.734	0.952	1.02	0.783	1.09	0.974	1.11	1.07
D fixed	0.49	0.785	0.467	0.945	0.698	2.14	1.23	1.2	1.15	1.18
E fixed	0.8	1.08	0.378	1.29	0.752	1.3	1.51	1.47	1.61	1.17
F fixed	1.63	1.19	1.77	1.06	1.2	0.893	0.809	1.08	1.33	0.973
G fixed	0.753	0.459	0.63	1.37	1.12	0.495	1.19	1.08	1.22	1.35
H fixed	1.43	0.887	0.884	1.15	1.21	1.47	1.1	1.26	0.913	0.977
I fixed	1.77	1.04	2.41	0.792	0.939	1.38	0.831	0.755	0.902	0.965
K fixed	0.14	0.714	0.269	0.674	0.867	0.149	0.635	0.559	0.657	0.717
L fixed	0.821	1.09	2.05	0.72	1	1.24	0.776	0.724	0.961	0.986
M fixed	1.53	1.08	1.55	1.11	0.978	0.745	0.654	0.775	0.753	1.02
N fixed	0.322	1.11	0.403	0.855	0.687	2.5	1.17	1.41	0.809	1.22
P fixed	0.269	0.874	0.906	1.63	1.6	1.11	1.12	0.994	1.14	1.18
Q fixed	0.686	1.02	0.485	0.908	0.702	0.756	1.11	0.791	1.01	0.943
R fixed	0.173	1.05	0.375	0.821	0.975	0.196	0.731	0.682	0.641	0.87
S fixed	0.83	1.02	0.77	0.869	0.961	0.701	1.2	1.14	0.748	0.814
T fixed	0.871	0.983	0.741	0.862	0.919	0.784	1	1.04	0.684	0.88
V fixed	1.95	0.976	1.64	0.786	0.807	0.872	0.87	0.738	0.823	0.734
W fixed	1.85	1.76	1.54	1.21	1.55	0.48	0.989	1.32	1.53	0.951
pThr fixed	1.61	0.745	0.374	0.914	0.625	0.999	1	0.982	0.995	0.973
pTyr fixed	2.92	1.81	0.837	1.17	0.96	7.29	1.63	1.86	1.64	1.2

PDGFRA, construct: aa550-end, human (from UniProt P16234)
relative phosphorylation
Details	at +1	at +2	at +3	at +4	at +5	at -1	at -2	at -3	at -4	at -5
A fixed	0.719	0.633	0.549	0.784	0.982	0.729	1.02	0.85	1.04	0.882
D fixed	0.273	0.434	0.302	0.674	0.645	1.32	0.947	0.97	0.898	0.812
E fixed	0.492	0.583	0.198	0.613	0.565	0.962	0.814	1.14	0.849	0.737
F fixed	2.05	1.59	1.61	1.05	1.35	1.37	0.853	0.954	1.21	1.11
G fixed	0.34	0.427	0.755	0.98	0.943	0.594	1.09	1.07	1.08	1.03
H fixed	1.43	1.02	0.972	1.34	1.1	1.47	1.01	1.09	0.962	1.15
I fixed	1.66	1.03	2.09	0.922	0.999	1.36	0.94	0.823	0.916	1.1
K fixed	0.699	1.12	1.02	1.05	1.08	0.509	0.835	0.959	1.06	0.995
L fixed	1.31	1.4	1.53	0.808	1.12	1.18	1	0.905	1.06	1.11
M fixed	1.13	1.2	1.13	1.17	1.02	0.892	1	0.967	0.878	1.1
N fixed	0.671	0.856	0.748	0.987	0.967	1.49	1.06	1.13	0.832	1.07
P fixed	0.31	0.863	0.928	1.11	0.943	0.931	1.34	1.08	1.06	0.885
Q fixed	1.25	0.928	0.632	1.01	0.92	1.07	1.13	1.11	1.07	1.04
R fixed	0.768	1.56	1.19	1.49	1.17	0.55	1.03	1.09	1.05	1.19
S fixed	0.655	0.633	0.604	0.91	0.932	0.694	1.03	1.02	0.801	0.817
T fixed	0.848	0.606	0.793	0.97	0.888	0.945	0.917	0.977	0.745	0.856
V fixed	1.92	0.851	1.62	0.839	0.98	1.02	0.954	0.778	0.894	0.86
W fixed	1.46	2.27	1.33	1.31	1.39	0.91	1.03	1.07	1.6	1.26
pThr fixed	0.498	0.395	0.237	0.467	0.482	0.675	0.695	0.693	0.744	0.786
pTyr fixed	1.75	1.49	0.414	0.788	0.626	1.09	0.876	1.12	1.16	1.02

PDGFRB, construct: aa557-end, human (from UniProt P09619)
relative phosphorylation
Details	at +1	at +2	at +3	at +4	at +5	at -1	at -2	at -3	at -4	at -5
A fixed	1.1	0.618	0.621	0.809	0.959	0.751	0.921	0.883	1.02	0.916
D fixed	0.263	0.542	0.332	0.816	0.825	1.46	0.994	1.26	1.11	1.13
E fixed	0.377	0.815	0.245	0.817	0.757	0.988	1.08	1.26	0.996	1.12
F fixed	1.49	1.41	1.54	0.86	0.93	1.33	0.75	0.807	1.01	0.902
G fixed	0.536	0.452	0.617	1.01	1.11	0.532	1.18	1.03	1.15	1.11
H fixed	1.25	0.986	0.975	1.25	1.04	1.96	1.27	1.08	1.08	1.08
I fixed	1.91	1.04	2.13	0.898	0.769	1.12	0.745	0.707	0.816	0.877
K fixed	0.561	1.02	0.776	1.17	1.15	0.534	1.02	0.997	1.05	1.06
L fixed	0.96	1.12	1.57	0.854	0.906	0.898	0.88	0.752	0.793	0.843
M fixed	0.964	1.2	1.3	0.978	0.852	0.818	0.76	0.857	0.816	0.892
N fixed	0.451	0.899	0.775	0.976	1.12	1.58	1.28	1.31	1.03	1.12
P fixed	0.259	0.732	0.857	0.909	1.08	0.742	1.05	1.08	1.16	0.995
Q fixed	1.05	0.969	0.715	1.14	1	1.11	1.23	1.12	1.14	1.21
R fixed	0.668	1.67	1.09	1.5	1.41	0.56	1.2	1.19	1.14	1.37
S fixed	0.828	0.663	0.733	0.958	1.2	0.696	1.16	1.08	0.87	0.916
T fixed	1.27	0.75	0.711	0.965	0.96	0.872	0.958	0.923	0.759	0.76
V fixed	2.65	0.96	1.58	0.881	0.768	1.05	0.752	0.744	0.776	0.721
W fixed	1.41	2.14	1.42	1.2	1.15	0.997	0.787	0.924	1.28	0.986
pThr fixed	0.867	0.439	0.272	0.505	0.575	0.682	0.836	0.865	0.87	0.845
pTyr fixed	1.15	1.84	0.4	0.809	0.751	1.06	1.08	1.19	1.29	1.01
